# According to US10144929B2, “Polypeptide inhibitors of Smad3 polypeptide activities” (Mayo Foundation for Medical Education and Research, priority 2016, dated 2018):
# Columns and labels:
# [1] = Liver enzymes and inflammatory cells in blood of saline or BLM mice; type: in vivo, C57BL/6 mice; conditions: 1 mg/kg daily from day 14; blood at days 0, 14, 28
# Procedure: (§1) FIG. 12. C57BL/6 mice received intratracheal instillation of saline or bleomycin (BLM). On day 14, all animals began daily treatment with either vehicle (methocel/saline) or 1 mg/kg of TAT-SH3-2. Blood samples were obtained at days 0, 14, and 28 from the facial vein of unanesthetized animals and assessed for effect on the indicated liver enzymes and inflammatory cells. Quantification of lymphocytes, monocytes, and neutrophils were measured using a VetScan HM5 Analyzer. Serum levels (U/L, units per liter; g/dL, grams per deciliter) of alkaline phosphatase (ALP), alanine aminotransferase (ALT), and albumin were determined using a Piccolo Xpress Chemistry analyzer. Data are presented as mean+/−SEM of n=5.
# as §1, with “C57BL/6” for “FIG. 12. C57BL/6”, “analyzer.” for “analyzer. Data are presented as mean+/−SEM of n=5.”
# [2] = tested on: adenovirus-TGFβ models of pulmonary fibrosis; assay: Adenovirus-TGFβ model of pulmonary fibrosis; type: in vivo, Mice; conditions: 1 mg/kg daily from day 21
# Procedure: FIGS. 13A-C. Mice were infected with 1×10^8 pfu adenovirus particles expressing control (GFP) or active TGFβ by tracheal instillation. On day 21, all animals began daily treatment with either vehicle (methocel/saline) or 1 mg/kg of the indicated TAT polypeptide. (A) On days 21 and 35, peripheral blood oxygen was determined. (B and C) Mice were sacrificed on day 39 and processed for lung hydroxyproline content (B) or qPCR expression of the indicated genes (C) (CTGF, connective tissue growth factor; α-SMA, alpha smooth muscle actin; Col Iα1, collagen Iα1). For panels A-C, data reflect mean+/−SEM of n=8 and n=16 for adenovirus-GFP and adenovirus-TGFβ, respectively. *P<0.05, **P<0.001, ***P<0.0005.
# Mice were infected with 1×10^8 pfu adenovirus particles expressing control (GFP) or active TGFβ by tracheal instillation. On day 21, all animals began daily treatment with either vehicle (methocel/saline) or 1 mg/kg of the indicated TAT polypeptide. On days 21 and 35, peripheral blood oxygen was determined. Mice were sacrificed on day 39 and processed for lung hydroxyproline content or qPCR expression of CTGF (connective tissue growth factor), α-SMA (alpha smooth muscle actin), and Col Iα1 (collagen Iα1).
# pSmad3 = biological target: T1, pSmad3 (Mus musculus, UniProt Q8BUN5); assay: Nuclear import of pSmad3 (nuclear fractions Western, immunofluorescence) in AKR-2B cells; type: cell-based; conditions: 90 minutes transduction, TGFβ 5 ng/mL 1 hour
# T1 construct: endogenous in cells; host or cells: AKR-2B cells
# T1 sequence (Q8BUN5 whole entry): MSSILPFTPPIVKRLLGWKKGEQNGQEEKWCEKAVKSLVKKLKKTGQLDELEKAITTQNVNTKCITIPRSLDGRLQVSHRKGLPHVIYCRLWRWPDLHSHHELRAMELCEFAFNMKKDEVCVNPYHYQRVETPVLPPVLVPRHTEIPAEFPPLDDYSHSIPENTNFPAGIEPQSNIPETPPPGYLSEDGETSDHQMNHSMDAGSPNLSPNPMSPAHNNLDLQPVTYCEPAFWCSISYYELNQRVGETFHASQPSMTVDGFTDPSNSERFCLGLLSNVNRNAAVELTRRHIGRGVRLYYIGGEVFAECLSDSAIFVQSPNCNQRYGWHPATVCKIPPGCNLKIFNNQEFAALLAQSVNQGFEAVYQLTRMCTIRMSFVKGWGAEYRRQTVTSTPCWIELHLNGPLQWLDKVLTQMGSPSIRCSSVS
# Procedure: FIGS. 1A-C. SH3 domain of sorting nexin 9 (SNX9) specifically binds pSmad3 and prevents nuclear import. (A) Cartoon depicting domains in full length (FL) SNX9 and constructs used for GST pull down assays. Lysates from AKR-2B cells untreated (−) or stimulated (+) for 45 minutes with 5 ng/mL TGFβ were incubated with GST beads or the indicated fusion polypeptides immobilized on GST beads. Bound polypeptides were eluted and assessed by Western analysis for pSmad3 or pSmad2. Cell lysate reflects signal obtained from 10 μg total protein. (B) AKR-2B cells were transduced for 90 minutes with the indicated concentrations of the TAT-SNX9(SH3) fusion polypeptides. […] Quantitation of nuclear pSmads was performed with Image J software and represents the mean+/−sd of two experiments (Right). […] Quantitation of nuclear Smad3 from 30 cells in each of two experiments (Right).
# FIGS. 3A-E. Inhibition of Smad3 signaling by a defined region of the SH3 domain in SNX9. […] (B) Nuclear fractions were prepared and assessed as in FIG. 1B following transduction with the indicated TAT-SNX9(SH3) fusion polypeptide (Left). Quantitation (mean+/−sd) of nuclear pSmad2 or pSmad3 from 2 experiments (Right). (C) Immunofluorescence of nuclear Smad3 was determined as in FIG. 1C from 30 cells in each of two experiments in the absence (−) or presence (+) of 5 ng/mL TGFβ and the indicated TAT-SNX9(SH3) fusion polypeptide (1.5 μM). […]
substance,measurement,setting,value
TAT-SH3-2: TAT-SNX9(SH3) fusion polypeptide having SNX9 amino acids 21-51 (31 mer) (TVNEGEIITITNPDVGGGWLEGRNIKGERGL; left off: small tags and cut ends),"inflammatory cell recruitment (lymphocytes, monocytes, neutrophils)",[1],no demonstrable effect
same,"murine liver enzymes (ALP, ALT, albumin)",[1],no demonstrable effect
same,lung function (peripheral blood oxygen),[2],stabilized lung function
same,nuclear import of pSmad3,pSmad3,specifically prevented pSmad3 nuclear import
